Test results: IntAct's records for PubMed 29039417

B1: BBSome complex member BBS2 (Homo sapiens), Q9BXC9 (parent)
chain: MLLPVFTLKLRHKISPRMVAIGRYDGTHPCLAAATQTGKVFIHNPHTRNQHVSASRVFQSPLESDVSLLSINQAVSCLTAGVLNPELGYDALLVGTQTNLLAYDVYNNSDLFYREVADGANAIVLGTLGDISSPLAIIGGNCALQGFNHEGSDLFWTVTGDNVNSLALCDFDGDGKKELLVGSEDFDIRVFKEDEIVAEMTETEIVTSLCPMYGSRFGYALSNGTVGVYDKTSRYWRIKSKNHAMSIHAFDLNSDGVNELITGWSNGKVDARSDRTGEVIFKDNFSSAIAGVVEGDYRMDGHIQLICCSVDGEIRGYLPGTAEMRGNLMDTSAEQDLIRELSQKKQNLLLELRNYEENAKAELASPLNEADGHRGIIPANTRLHTTLSVSLGNETQTAHTELRISTSNDTIIRAVLIFAEGIFTGESHVVHPSIHNLSSSICIPIVPPKDVPVDLHLKAFVGYRSSTQFHVFESTRQLPRFSMYALTSLDPASEPISYVNFTIAERAQRVVVWLGQNFLLPEDTHIQNAPFQVCFTSLRNGGHLHIKIKLSGEITINTDDIDLAGDIIQSMASFFAIEDLQVEADFPVYFEELRKVLVKVDEYHSVHQKLSADMADHSNLIRSLLVGAEDARLMRDMKTMKSRYMELYDLNRDLLNGYKIRCNNHTELLGNLKAVNQAIQRAGRLRVGKPKNQVITACRDAIRSNNINTLFKIMRVGTASS
partner: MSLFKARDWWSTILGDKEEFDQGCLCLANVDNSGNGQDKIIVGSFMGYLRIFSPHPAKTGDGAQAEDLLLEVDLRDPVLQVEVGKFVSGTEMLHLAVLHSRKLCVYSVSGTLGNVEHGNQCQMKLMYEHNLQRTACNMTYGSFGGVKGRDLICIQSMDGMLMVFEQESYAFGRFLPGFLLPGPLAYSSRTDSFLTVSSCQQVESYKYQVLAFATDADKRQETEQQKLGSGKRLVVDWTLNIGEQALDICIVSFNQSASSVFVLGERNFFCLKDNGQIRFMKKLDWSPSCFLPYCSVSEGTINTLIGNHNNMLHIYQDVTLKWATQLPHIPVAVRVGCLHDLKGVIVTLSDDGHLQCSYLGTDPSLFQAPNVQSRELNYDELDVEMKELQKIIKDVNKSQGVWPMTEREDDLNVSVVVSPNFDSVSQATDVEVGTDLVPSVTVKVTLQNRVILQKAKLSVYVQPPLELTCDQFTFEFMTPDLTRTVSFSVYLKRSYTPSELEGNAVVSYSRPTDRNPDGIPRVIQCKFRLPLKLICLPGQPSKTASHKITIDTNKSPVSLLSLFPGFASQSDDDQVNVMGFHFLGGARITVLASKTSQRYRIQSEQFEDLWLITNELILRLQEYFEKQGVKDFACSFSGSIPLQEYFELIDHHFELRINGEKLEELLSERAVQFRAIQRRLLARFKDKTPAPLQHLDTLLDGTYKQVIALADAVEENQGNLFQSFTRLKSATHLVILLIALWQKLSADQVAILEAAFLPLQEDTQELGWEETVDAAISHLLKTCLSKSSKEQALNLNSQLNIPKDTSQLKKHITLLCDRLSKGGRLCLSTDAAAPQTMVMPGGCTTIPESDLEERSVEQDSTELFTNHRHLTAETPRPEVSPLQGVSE

Variants of: B1
Conditions: with pthb1_human BBS9, Q3SYG4

Row | Variant | effect of a mutation on the interaction
1 | T400E | with no effect
2 | T400A | with no effect
3 | T400K | with no effect
4 | G392E | with no effect
5 | G392A | with no effect
6 | G392K | with no effect
7 | K360E | with no effect
8 | K360A | with no effect
9 | N393K | with no effect
10 | N393E | with no effect
11 | N393A | with no effect
12 | S390K | with no effect
13 | S390E | disrupting interaction strength
14 | S390G | disrupting interaction strength
15 | S390A | with no effect
16 | T397K | with no effect
17 | T397A | with no effect
18 | T397E | with no effect
19 | L367K | with no effect
20 | L367E | with no effect
21 | L367A | with no effect
22 | N358K | with no effect
23 | N358E | with no effect
24 | N358A | with no effect
25 | L383K | with no effect

Row | Variant | effect of a mutation on the interaction
26 | L383E | with no effect
27 | L383A | with no effect
28 | T395A | with no effect
29 | T395E | with no effect
30 | T395K | with no effect
31 | L348E | with no effect
32 | L348K | with no effect
33 | L348A | with no effect
34 | E351K | with no effect
35 | E351A | with no effect
36 | L349A | with no effect
37 | L349E | with no effect
38 | L349K | with no effect
39 | A398E | with no effect
40 | A398K | with no effect
41 | A398V | disrupting interaction strength
42 | L350K | with no effect
43 | L350E | with no effect
44 | L350A | with no effect
45 | E357A | with no effect
46 | E357K | with no effect
47 | I377T | disrupting interaction strength
48 | I377R | disrupting interaction strength
49 | I377E | with no effect
50 | I377A | with no effect

Row | Variant | effect of a mutation on the interaction
51 | I377K | with no effect
52 | R374E | with no effect
53 | R374W | disrupting interaction strength
54 | R374K | with no effect
55 | R374A | with no effect
56 | E369K | with no effect
57 | E369A | with no effect
58 | N380K | with no effect
59 | N380A | disrupting interaction strength
60 | N380E | disrupting interaction strength
61 | N354A | with no effect
62 | N354E | with no effect
63 | N354K | with no effect
64 | I376A | with no effect
65 | I376E | with no effect
66 | I376V | disrupting interaction strength
67 | I376K | with no effect
68 | R353A | with no effect
69 | R353K | with no effect
70 | R353E | with no effect
71 | N347K | with no effect
72 | N347A | with no effect
73 | N347E | with no effect
74 | A359E | with no effect
75 | A359K | with no effect

Row | Variant | effect of a mutation on the interaction
76 | Q346E | with no effect
77 | Q346A | with no effect
78 | Q346K | with no effect
79 | A379K | with no effect
80 | A379E | with no effect
81 | D371V | disrupting interaction strength
82 | D371E | with no effect
83 | D371K | with no effect
84 | D371A | with no effect
85 | K345A | with no effect
86 | K345E | with no effect
87 | A370K | with no effect
88 | A370E | with no effect
89 | E362Y | disrupting interaction strength
90 | E362K | with no effect
91 | E362A | with no effect
92 | A364E | with no effect
93 | A364K | with no effect
94 | A361K | with no effect
95 | A361E | with no effect
96 | S388P | disrupting interaction strength
97 | S388E | with no effect
98 | S388A | with no effect
99 | S388K | with no effect
100 | V389K | disrupting interaction strength

Row | Variant | effect of a mutation on the interaction
101 | V389S | disrupting interaction strength
102 | V389A | with no effect
103 | V389E | disrupting interaction strength
104 | Q396A | with no effect
105 | Q396K | with no effect
106 | Q396E | with no effect
107 | Y355A | with no effect
108 | Y355K | with no effect
109 | Y355E | with no effect
110 | L402K | disrupting interaction strength
111 | L402C | disrupting interaction strength
112 | L402E | disrupting interaction strength
113 | L402A | with no effect
114 | S365K | with no effect
115 | S365C | disrupting interaction strength
116 | S365E | with no effect
117 | S365A | with no effect
118 | N368K | with no effect
119 | N368E | with no effect
120 | N368A | with no effect
121 | R382K | with no effect
122 | R382E | disrupting interaction strength
123 | R382A | disrupting interaction strength
124 | P366K | with no effect
125 | P366A | with no effect

Row | Variant | effect of a mutation on the interaction
126 | P366E | with no effect
127 | T385K | with no effect
128 | T385A | disrupting interaction strength
129 | T385E | with no effect
130 | H384K | with no effect
131 | H384A | with no effect
132 | H384E | with no effect
133 | T386E | with no effect
134 | T386A | with no effect
135 | T386K | with no effect
136 | L387K | disrupting interaction strength
137 | L387A | with no effect
138 | L387E | with no effect
139 | E394K | with no effect
140 | E394A | with no effect
141 | H373E | with no effect
142 | H373A | with no effect
143 | H373K | with no effect
144 | G372K | with no effect
145 | G372E | with no effect
146 | G372A | with no effect
147 | L363A | with no effect
148 | L363K | with no effect
149 | L363E | with no effect
150 | L352A | with no effect

Row | Variant | effect of a mutation on the interaction
151 | L352K | with no effect
152 | L352E | with no effect
153 | G375A | with no effect
154 | G375E | disrupting interaction strength
155 | G375K | with no effect
156 | L391A | with no effect
157 | L391K | with no effect
158 | L391E | with no effect
159 | E401A | with no effect
160 | E401K | with no effect
161 | H399K | with no effect
162 | H399E | with no effect
163 | H399A | with no effect
164 | T381E | with no effect
165 | T381A | with no effect
166 | T381K | with no effect
167 | E356A | with no effect
168 | E356K | with no effect
169 | E356S | disrupting interaction strength
170 | E356P | disrupting interaction strength
171 | E356L | disrupting interaction strength
172 | P378K | with no effect
173 | P378E | with no effect
174 | P378A | with no effect
